Source: patent US20250171516A1, “PEPTIDE ACIDS AS A GLP1R AGONIST AND ANTIBODY-DRUG CONJUGATES THEREOF” (Regeneron Pharmaceuticals, Inc., priority 2023, published 2025)
Read-outs that look alike come from different tables or passages of the source. Starred links: 1 amine or outer side, 2 acyl side, 3 side chain; linkers in the order of their positions; H or OH if unused. Non-standard residues stand in square brackets, D forms with d. Residues, ends and D or L forms follow the SMILES beside them. Groups on a side chain read outwards from the residue. No end group written: not given here. *: point of attachment. X2 = CCc1cc(OCCCCn2cc(COCCOCCOCCOCCOCCOCCOCCOCCN[*:3])nn2)ccc1-c1ccc(C[C@H](N[*:1])C(=O)[*:2])cc1; Malonyl(2,2-Me2,histaminyl) = CC(C)(C(=O)NCCc1cnc[nH]1)C(=O)*; Nva(5-(3,5-Me2Ph)) = Cc1cc(C)cc(CCC[C@H](N)C(=O)O)c1; Ala(1H-tetrazol-5-yl) = N[C@@H](Cc1nnn[nH]1)C(=O)O; αMePhe(2-F) = C[C@](N)(Cc1ccccc1F)C(=O)O; γGlu = O=C(O)[C@H](CCC(=O)[*:2])N[*:1]; AA10 = not defined here; AA1 = not defined here; AA2 = not defined here; AA6 = not defined here; AA9 = not defined here

Assays:
GLP-1R = GLP-1R (Homo sapiens, UniProt P43220); experiment: GLP-1R cAMP assay of peptides (Tables 10, 14, 15); format: cell-based
Sequence of GLP-1R (P43220 24-463): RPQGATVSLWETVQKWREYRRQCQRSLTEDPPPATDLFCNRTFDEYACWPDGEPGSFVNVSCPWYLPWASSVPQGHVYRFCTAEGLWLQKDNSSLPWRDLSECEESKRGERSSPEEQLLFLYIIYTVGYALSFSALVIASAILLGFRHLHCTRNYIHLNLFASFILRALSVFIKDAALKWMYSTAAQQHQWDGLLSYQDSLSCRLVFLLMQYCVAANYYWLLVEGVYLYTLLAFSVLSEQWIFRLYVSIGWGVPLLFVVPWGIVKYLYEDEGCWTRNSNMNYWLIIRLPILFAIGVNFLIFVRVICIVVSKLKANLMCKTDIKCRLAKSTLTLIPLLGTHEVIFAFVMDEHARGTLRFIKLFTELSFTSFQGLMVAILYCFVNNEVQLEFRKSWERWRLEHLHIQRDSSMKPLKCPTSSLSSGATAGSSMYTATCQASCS

[1] = target: GLP-1R of the cAMP assay of Tables 10, 14 and 15 (human, UniProt P43220 24-463, limits assumed); experiment: cell-based or functional assay
[2] = Table 15, peptide acids, read-out: cAMP EC50
[3] = Table 10, read-out: GLP-1R CAMP EC50

Molecule	GLP-1R CAMP EC50 [1] [nM]	GLP-1R CAMP Max (%) [1] [%]	further results
CCc1cc(OCCCCn2cc(COCCOCCOCCOCCOCCOCCOCCOCCNC(=O)CC[C@H](NC(=O)[C@H](CC(C)C)NC(=O)[C@@H](N)CC(C)C)C(=O)O)nn2)ccc1-c1ccc(C[C@H](NC(=O)[C@H](CC(=O)O)NC(=O)[C@H](CO)NC(=O)[C@@H](NC(=O)[C@](C)(Cc2ccccc2F)NC(=O)[C@@H](NC(=O)CNC(=O)[C@H](Cc2nnn[nH]2)NC(=O)C(C)(C)C(=O)NCCc2cnc[nH]2)[C@@H](C)O)[C@@H](C)O)C(=O)N[C@@H](CCCc2cc(C)cc(C)c2)C(N)=O)cc1 [M6296] ({Malonyl(2,2-Me2,histaminyl)}-[Ala(1H-tetrazol-5-yl)]GT[αMePhe(2-F)]TSD[X2]([γGlu-Leu-Leu])[Nva(5-(3,5-Me2Ph))]-NH2)	–	–	EC50 (GLP-1R; Table 14, peptide amides, read-out: cAMP EC50): 1.19 nM
CCc1cc(OCCCCn2cc(COCCOCCOCCOCCOCCOCCOCCOCCNC(=O)CC[C@H](NC(=O)[C@H](CC(C)C)NC(=O)[C@@H](N)CC(C)C)C(=O)O)nn2)ccc1-c1ccc(C[C@H](NC(=O)[C@H](CC(=O)O)NC(=O)[C@H](CO)NC(=O)[C@@H](NC(=O)[C@](C)(Cc2ccccc2F)NC(=O)[C@@H](NC(=O)CNC(=O)[C@H](Cc2nnn[nH]2)NC(=O)C(C)(C)C(=O)NCCc2cnc[nH]2)[C@@H](C)O)[C@@H](C)O)C(=O)N[C@@H](CCCc2cc(C)cc(C)c2)C(=O)O)cc1 [M6297] ({Malonyl(2,2-Me2,histaminyl)}-[Ala(1H-tetrazol-5-yl)]GT[αMePhe(2-F)]TSD[X2]([γGlu-Leu-Leu])[Nva(5-(3,5-Me2Ph))]-OH)	–	–	EC50 (GLP-1R): 13.4 nM; GLP-1R CAMP Max (GLP-1R; Table 10): 103.80%
CCc1cc(OCCCCN=[N+]=[N-])ccc1-c1ccc(C[C@H](NC(=O)[C@H](CC(=O)O)NC(=O)[C@H](CO)NC(=O)[C@@H](NC(=O)[C@](C)(Cc2ccccc2F)NC(=O)[C@@H](NC(=O)CNC(=O)[C@H](Cc2nn[nH]n2)NC(=O)C(C)(C)C(=O)NCCc2cnc[nH]2)[C@@H](C)O)[C@@H](C)O)C(=O)O)cc1 [M6320]	–	–	EC50 (GLP-1R; [2]): 51.2 nM
CCc1cc(OCCCCn2cc(COCCOCCOCCOCCOCCOCCOCCOCCNC(=O)CC[C@H](NC(=O)[C@H](CC(C)C)NC(=O)[C@@H](N)CC(C)C)C(=O)O)nn2)ccc1-c1ccc(C[C@H](NC(=O)[C@H](CC(=O)O)NC(=O)[C@H](CO)NC(=O)[C@@H](NC(=O)C(C)(Cc2ccccc2F)NC(=O)[C@@H](NC(=O)CNC(=O)[C@H](Cc2nn[nH]n2)NC(=O)C(C)(C)C(=O)NCCc2cnc[nH]2)[C@@H](C)O)[C@@H](C)O)C(=O)O)cc1 (stereo partly shown) [M6321]	–	–	GLP-1R CAMP Max (GLP-1R; Table 10): 33.86%; EC50 (GLP-1R; [3]): > 1000 nM; EC50 (GLP-1R; [2]): > 1000 nM
CCc1cc(OCCCCn2cc(COCCOCCOCCOCCOCCOCCOCCOCCNC(=O)CC[C@H](N)C(=O)O)nn2)ccc1-c1ccc(C[C@H](NC(=O)[C@H](CC(=O)O)NC(=O)[C@H](CO)NC(=O)[C@@H](NC(=O)C(C)(Cc2ccccc2F)NC(=O)[C@@H](NC(=O)CNC(=O)[C@H](Cc2nn[nH]n2)NC(=O)C(C)(C)C(=O)NCCc2cnc[nH]2)[C@@H](C)O)[C@@H](C)O)C(=O)O)cc1 (stereo partly shown) [M6322]	–	–	GLP-1R CAMP Max (GLP-1R; Table 10): 29.24%; EC50 (GLP-1R; [3]): > 1000 nM; EC50 (GLP-1R; [2]): > 1000 nM
[AA10][AA9]GT[AA6]TXD[AA2][AA1]-OH (not fully specified (residue 7); printed as AA10-AA9-AA8-AA7-AA6-AA5-AA4-AA3-AA2-AA1-OH; also: AA2 azidobutoxy) [AA10-AA9-AA8-AA7-AA6-AA5-AA4-AA3-AA2-AA1-OH]	2.94	122	–
[AA10][AA9]GT[AA6]TSD[AA2]([Leu-Gln])-OH (reading uncertain; also: printed as AA10-AA9-AA8-AA7-AA6-AA5-AA4-AA3-(Q-L)AA2-OH) [AA10-AA9-AA8-AA7-AA6-AA5-AA4-AA3-(Q-L)AA2-OH]	> 1000	29.2	–
[AA10][AA9]GT[AA6]TSDX-OH (not fully specified (residue 9); printed as AA10-AA9-AA8-AA7-AA6-AA5-AA4-AA3-AA2-OH) [AA10-AA9-AA8-AA7-AA6-AA5-AA4-AA3-AA2-OH]	51.2	97.9	–
[AA10][AA9]GT[AA6]TSD[AA2]([Leu-Gln-Leu-Leu])-OH (reading uncertain; also: printed as AA10-AA9-AA8-AA7-AA6-AA5-AA4-AA3-(LLQ-L)AA2-OH) [AA10-AA9-AA8-AA7-AA6-AA5-AA4-AA3-(LLQ-L)AA2-OH]	> 1000	33.9	–
[AA10][AA9]GT[AA6]TSD[AA2]([Leu-Gln-Leu-Leu])[AA1]-OH (reading uncertain; also: printed as LLQ-M6009 (AA10-AA9-AA8-AA7-AA6-AA5-AA4-AA3-(LLQ-L)AA2-AA1-OH)) [LLQ-M6009 (AA10-AA9-AA8-AA7-AA6-AA5-AA4-AA3-(LLQ-L)AA2-AA1-OH)]	13.4	104	–
XXGTXTSDXX-OH (not fully specified (residues 1, 2, 5, 9, 10); printed as Q-M6009 (AA10-AA9-AA8-AA7-AA6-AA5-AA4-AA3-(Q-L)AA2-AA1-OH)) [Q-M6009 (AA10-AA9-AA8-AA7-AA6-AA5-AA4-AA3-(Q-L)AA2-AA1-OH)]	3.21	106	–
